Data: the supplement of paper PMC12042874
± gives the uncertainty stated by the source.

Assay: amyloid nucleation score (Sup35N fusion, yeast selection) (log enrichment); library NNK2; higher = more nucleation; inactive = no reads after selection
Summary of the method: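 Psi-negative yeast expressed Sup35N fused to peptides of 20 random codons. They were induced 24 hours with 100 μM copper sulfate, grown 7 days at 30°C without adenine and uracil, and their plasmid inserts from input and output were Illumina-sequenced. The nucleation score is the DiMSum log enrichment of output over input reads, centred on the mode score of non-aggregating sequences. Sequences with under 100 input reads were excluded.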

Row | Substance | amyloid nucleation score
1 | DLSHNVNVCICFCWAMRYDA | 8.342 ± 0.045
2 | MSHTVITFFVCIVYSFSHCL | 1.86 ± 0.3
3 | SLHRAVYMGVKEYAILTEYG | 0.127 ± 0.35
4 | ALDGVRNSEMGKRVSGVCEY | 0.89 ± 0.28
5 | RYNLKQCL | inactive
6 | DGFSFIVRSFVWRNNHADAG | 3.71 ± 0.12
7 | RDIFILSLLDRMSEGTKRIR | 3.86 ± 0.076
8 | YLRLHYAFSGVNNKGIESGC | inactive
9 | FEGCCWVVGLLRLSG | 8.713 ± 0.077
10 | DMVCRY | -0.272 ± 0.36
11 | AMVLFDGNVLWIHDRSCRRI | 0.862 ± 0.53
12 | WRSLLVLAFHLRLLYVSSMK | inactive
13 | SDIFRK | -1.27 ± 0.62
14 | SVLGTKVRVYRSGWTLRIFE | -0.456 ± 0.37
15 | SRSVIFSGESSHHADWFWTV | 1.16 ± 0.68
16 | NSVSCANYTLHPIAMDWNGP | inactive
17 | VYCIVRMYIALWCYVLDYVE | 0.34 ± 0.36
18 | LYCDECISWYAHDWLNI | 0.409 ± 0.45
19 | WVQHYCSEFLL | -0.313 ± 0.63
20 | FYRHCFVVTNKRAPSKSRSK | 4.61 ± 0.11
21 | VVNVVSGYGAE | 0.619 ± 0.19
22 | GLIMVSSVLCTFAGMGDNWA | 5.84 ± 0.091
23 | CYVRI | -0.603 ± 1.1
24 | LYIDIRRSCLVCNGMSWRAG | 5.865 ± 0.052
25 | HVWGQLSCFARVALSDRSKM | 3.07 ± 0.16

Row | Substance | amyloid nucleation score
26 | LAIVQ | -0.256 ± 0.42
27 | FSNISSSMKNKSVRGCECGR | -1.04 ± 0.33
28 | SLHMFLVIFSYLLVANRGKS | 0.246 ± 0.65
29 | GLFLRSTP | -0.402 ± 0.42
30 | SILYVSRLTFR | 0.218 ± 1.1
31 | LLFPQANMKDRSSPGVDWAQ | 2.72 ± 0.068
32 | MLWVWSLSQTLVRTKVRVLS | 0.024 ± 0.5
33 | FVSVIILCFCVIQPMNLNSV | 1.4 ± 0.15
34 | DSSLKLGNTETFIDRSMLCN | -0.407 ± 0.4
35 | FLMACPMFIIVYLCRT | inactive
36 | NKVAKLDFFFLKGPAFRNKA | inactive
37 | ISPTKSNLYMADVEFREPGT | -0.883 ± 0.49
38 | TDWVW | 0.593 ± 0.2
39 | MCTGVPINGFWVCPYDQSGK | 0.108 ± 0.33
40 | EGSNYYTMVV | inactive
41 | RFGRSQVRAKCRVDDDRWIR | 4.63 ± 0.071
42 | VHVRGACCHGCRARNVSGHP | 1.05 ± 0.19
43 | GLVRSRVWRRASSPGYGECV | 1.3 ± 0.33
44 | YYCTKASTLRSGGFRFMPMT | 4.9 ± 0.051
45 | AINLSDKAARVPLFK | -0.093 ± 0.34
46 | NTNRVVWVVLAMKI | 0.086 ± 0.77
47 | YSWVEPRSRRAVEHDS | 0.551 ± 0.3
48 | FWSDSVVFRPDTVRLERSLG | 0.025 ± 1.1
49 | VSCYACREFMRLIVISGCLC | 3.69 ± 0.042
50 | RFFVYWFVFLCRLNGCVLWT | -0.689 ± 0.4

Row | Substance | amyloid nucleation score
51 | RCYVFKLSFGDTQCELFRIT | 6.406 ± 0.049
52 | CRSWTHKSHIPVKLSNDTMS | -0.106 ± 0.63
53 | LCFQVVMPWNNISLSFLWLG | 0.759 ± 0.52
54 | RQGFSVSSNRLGVFQSQEPG | -1.05 ± 0.78
55 | KPIIGGVSTERSLVIAGVHL | 0.011 ± 0.79
56 | KGVLSGTWGGIRRIMTHVHD | 0.004 ± 0.36
57 | SMFGRRVWLDCNQPAGGRFA | 0.118 ± 0.22
58 | TNGYSVRLYKGSCVILIGL | 5.12 ± 0.092
59 | NLFKDTISSLHNGIETIAPF | -0.82 ± 0.61
60 | VHDFTRNRKWWDNLWSDRSM | 0.399 ± 0.47
61 | MWLLWAKI | inactive
62 | PRVVYNFLNWGIGFYFVVDD | 7.161 ± 0.027
63 | GLIVKLMGIFRNRSETSESQ | 4.47 ± 0.083
64 | ASELLGYMCDIVASLGVVRY | 0.747 ± 0.43
65 | FFLWVGTYSVVPGLCVYMS | 3.78 ± 0.11
66 | TCTNLSCTGWKNGVCVCM | 8.536 ± 0.057
67 | FNFGNDGYSFNIILWYQRYI | 6.61 ± 0.063
68 | AEKQVCLAQKFLNLQLIFRW | 1.72 ± 0.12
69 | RSNDCDDLMDHVLWGYETYR | 1.08 ± 0.66
70 | LASFGLRGVRQCQMNAE | 1.78 ± 0.15
71 | ISLIFCNSTRIYKFLLMFSW | inactive
72 | AEYKCAFFMSLNAVALDKRY | 3.2 ± 0.12
73 | LSRQFRRYLMLSLFYFVLLP | -1.21 ± 0.38
74 | TPLEYF | -0.19 ± 0.3
75 | KTHIREVCEGVTIIHKWTWV | -0.508 ± 0.63

Row | Substance | amyloid nucleation score
76 | FVLLGGMTWHT | 5.512 ± 0.027
77 | KHIDVRSNVWTRPHSKWLWS | 0.403 ± 0.2
78 | WNTISRLCDLWLRVAYGSLV | 0.461 ± 0.65
79 | DGFMLMFFTITIRFPNALQV | inactive
80 | QHRMDTDTNYFDKDVGHFIS | -0.984 ± 0.32
81 | YMKKSMF | -0.095 ± 1.1
82 | RKNSWDISHPAGTCNIRFIL | 0.339 ± 0.61
83 | MVSYKVLEYYVSLITTHLLF | -0.36 ± 0.49
84 | NGFCYFDGLSLSYSKLTGMM | inactive
85 | NYCRVDLHSYKCYVVCSMFM | 4.76 ± 0.11
86 | FMSLTSMLCNLRTNSCMCAR | -0.014 ± 0.21
87 | INFSTLYDLGESFFYQCPKM | inactive
88 | SSTFPPF | -0.691 ± 0.41
89 | YSRGMGVSNEMRDYFNKRDI | inactive
90 | VNWEHVRIVELFYKGMSQMA | -0.549 ± 1
91 | IARRLTMGLTRMM | 1.56 ± 0.18
92 | RLSEVTKDYVGTCNLDRLS | -0.157 ± 0.29
93 | CTVFCLQRSFGHYSLMMLIN | 2.22 ± 0.12
94 | FLILAHLGIKNYNWV | 3.885 ± 0.037
95 | MYLCTGFASSFIKSHHITWR | -0.098 ± 0.43
96 | NINMWSLCRFLWDAFARR | 0.378 ± 0.26
97 | RLVIGT | 2.41 ± 0.11
98 | TRKILEMVFLLTAVNYNGVP | -1.12 ± 0.26
99 | MGLWLDYDTHCYQNVVFKRT | 2.41 ± 0.091
100 | VLILDVVYSLDESEVSVVWY | -0.429 ± 0.42

Row | Substance | amyloid nucleation score
101 | NFSAFGRFNLNLWMNNITRL | 4.05 ± 0.077
102 | RSCMASEYGT | -0.971 ± 0.64
103 | PWHDEVVVSNQVYTYMGPSS | 0.074 ± 0.3
104 | SYDDGRFGVGCCFIEGYRI | -1.41 ± 1
105 | RGKSKYSRLGWPGNLEHKGL | 0.388 ± 0.46
106 | GCVPVRYIARSAWNNPDLPN | 0.829 ± 0.57
107 | IFKCRRVI | 4.614 ± 0.041
108 | WSSHFWMFGSAVSQAWGRGW | 3.17 ± 0.074
109 | TCFVC | 5.746 ± 0.052
110 | NNSMYILYSGYTFGCYTRGL | 6.38 ± 0.066
111 | KYCHLWCEKGMELSALSEAV | 0.001 ± 0.76
112 | KTFTWHIVRLYYKYPPMPKV | inactive
113 | RRAILWPNGAN | 0.097 ± 0.37
114 | NFHLEIIFPRQLRLNRSPWV | 3.96 ± 0.13
115 | GVPDCLLCVNSIYQGSLSFG | 5.24 ± 0.09
116 | SAVSMMLYWGSLNRVDYCWS | 0.877 ± 0.32
117 | VVSRVECALAWVRNDIEALT | 0.343 ± 0.8
118 | HGGRKG | 1.42 ± 0.31
119 | FLVLVTFKFRAQTDFLSSWN | -0.884 ± 0.78
120 | RICVRCPSYYTMWLWCLRFL | inactive
121 | IKFVEPYSFLS | 1.32 ± 0.092
122 | VLIVFNNPCFMGWALVDVVL | 8.194 ± 0.053
123 | MGRGPESQHFVCCHRRAWL | 1.15 ± 0.3
124 | KSFIGWLYMDTEYHWMYQPW | 0.27 ± 0.28
125 | NYSIFDWTCSSKMSIITCAK | 5.697 ± 0.029

Row | Substance | amyloid nucleation score
126 | LTSSA | -0.315 ± 0.49
127 | RWICWAMCSYLRRRKKP | 0.527 ± 0.65
128 | TCVKASNRG | -0.608 ± 0.55
129 | DMGGPTTIY | 0.798 ± 0.67
130 | ALISSPANCAISWITCILVV | 5.947 ± 0.034
131 | FASRLNWVEIHTMYGGLS | 0.209 ± 0.32
132 | NSRISKNNLSRSLT | -0.196 ± 0.56
133 | QTVTCHNNRYVFRLSTMC | 0.71 ± 0.41
134 | YVNFD | -0.299 ± 0.48
135 | SLMDLT | 0.02 ± 0.54
136 | MSRIRTTTMNSGFGGYTPVL | 3.06 ± 0.056
137 | WINPFAQWMNSVQIFK | 0.466 ± 0.12
138 | RVNPCMTEGSLGLICSPYWY | -0.511 ± 0.22
139 | MNCVLQKLVVVCFQSMAYMR | 0.498 ± 0.27
140 | LVTLRKMDPSPRRVIFNVCN | 0.935 ± 0.39
141 | FCKHFYVLREHIKWADSFLM | inactive
142 | DLAFFMLHYLHIRRCKDYPR | inactive
143 | FWKNYQIMMRMCDKHVIEDV | 2.95 ± 0.11
144 | RKGSTGRDISSNSYIVY | inactive
145 | LYGMF | -0.261 ± 0.63
146 | PYTFQYY | -0.549 ± 0.26
147 | DNDYTWIKFLKCGRADASGT | 0.157 ± 0.5
148 | VKCKRCSASSFAIYVEYCCT | 0.138 ± 0.17
149 | TLETSNILFYGEDVKLSSQV | 0.078 ± 0.34
150 | GSQVYPPPPMADM | 0.426 ± 0.3

Row | Substance | amyloid nucleation score
151 | GVHISRVVCQN | 0.265 ± 1.1
152 | NICELPITHKVGSWV | 0.518 ± 0.38
153 | VRLFLAIMVYVLHSHHRYAD | 0.978 ± 0.74
154 | LHIFSSWTRW | -0.451 ± 0.76
155 | IKDLSRGCFSFYW | 1.37 ± 0.17
156 | LVLAGSYDRCLPSCVVMRKG | 0.461 ± 0.64
157 | LPKREPGDKGTLLYYDQELS | 0.167 ± 0.53
158 | WSYRTESIHLYYLRPIFKIV | -1.11 ± 0.54
159 | SHFGLDADWVEVPYYRFFRY | -0.8 ± 1
160 | LSRLNFGIFDKVTAATGLMK | -1.26 ± 0.78
161 | GISRGLILEVTC | 1.12 ± 0.43
162 | GRSGIFCLPCMLCKFY | 6 ± 0.064
163 | CYFSGSVSRTSVRLVLLSNG | -0.573 ± 1.1
164 | SFRMKAALRRGNPNRAMDLT | 2.33 ± 0.098
165 | YTLFPAVLECDQVLYVSVNF | 6.491 ± 0.037
166 | YPSLNDACQP | -0.394 ± 1.1
167 | LYYVMSPWLITSRAWDGSSS | 0.778 ± 0.67
168 | SLVFVFVITKT | 5.526 ± 0.05
169 | CDTYNFCIL | 6.124 ± 0.035
